The values below come from US20200239573A1 (CRESCENDO BIOLOGICS, published 2020).

The target of test [1] is T1, human PD-1 expressed on cells (CHO human PD-1 cells) (human, UniProt Q15116 21-288).
T1 construct: also called CHO TREX human PD-1 cell line; CHO PD-1
Briefly: FMAT 1.57 epitope competition on CHO human PD-1 cells; competitor 1.57-Strep; sample kept 1 day in mouse serum. How it is done: (§1) For the epitope competition assay reagents were prepared in FMAT assay buffer. […] Plates were incubated for a minimum of 1.5 hours at room temperature then fluorescence measured in the FL2 (502 nm-537 nm) and FL5 (677-800 nm) channels on the Mirrorball plate reader (TTP) following excitation at 488 nm and 640 nm. Data was expressed as a % of the total binding control (i.e. % control) after subtraction of the background signal determined from the non-specific binding control wells.
(§2) Serum stability of VH and multivalent VH constructs was assessed by measurement of their activity following incubation for 0, 1, 4 or 7 days in mouse serum (Sigma M5905).

The target in test [2] is T1, human PD-1 expressed on cells (CHO …). The test can be described thus: FMAT epitope competition on CHO human PD-1 cells; competitor 1 nM 1.1-Strep.
Test [3] shares this target. The test can be described thus: cell-based or functional assay.
Test [4] has the same target. Briefly: FMAT 1.57 epitope competition on CHO human PD-1 cells; competitor 1.57-Strep; sample kept 0 days in human serum; Day 0, Human column.
Test [5] has as its target T2, human PD-1 on primary human CD4+ T cells (human, UniProt Q15116 21-288). Briefly: flow cytometry, PHA-stimulated human CD4+ T cells, donor 4. How it is done:
(§3) Binding of monovalent single domain antibodies and multivalent binding agents to T cells was measured using flow cytometry. […] T-cells were stimulated with 2.5 μg/ml PHA for 2-4 days in RPMI media supplemented with 10% FBS, 2 mM Glutamine, 1× Pen/Strep. Cells were transferred into 96 well plates (75000 per well), blocked for 10 mins with PBS/1% BSA, then incubated with serially diluted VH in staining buffer (PBS/1% BSA) for 1 hour at 4° C. Cells were washed with staining buffer by centrifugation then incubated with 10 μg/ml biotinylated Anti His antibody for 40 mins at 4° C. Cells were washed again then stained with Streptavidin Alexa Fluor-488 (10 μg/ml) and 1:5000 diluted Live Dead near IR stain (Molecular Probes cat no. L10119) for 30 mins at 4° C. After further washing cells were fixed and fluorescence measured by flow cytometry.
A general note: Flow cytometry measures light scatter and fluorescence of single cells or particles in a stream.

The target in test [6] is T1, human PD-1 expressed on cells (CHO …). The test can be described thus: FMAT direct binding to CHO human PD-1 cells; column headed CHO PD-1 binding IC50 (M). From the text:
Plates were read in the FL2 (502 nm-537 nm) and FL5 (677-800 nm) channels on the TTP Mirrorball plate reader following excitation at 488 nm and 640 nm.

Test [7] shares this target. The test can be described thus: FMAT 1.57 epitope competition on CHO human PD-1 cells; competitor 1.57-Strep; sample kept 4 days in human serum.
Test [8] shares this target. Briefly: FMAT 1.57 epitope competition on CHO human PD-1 cells; competitor 1.57-Strep; sample kept 0 days in mouse serum. How it is done: as §1, §2
For test [9] the target is unchanged. Briefly: FMAT inhibition; 200 pM PD-L2 on CHO human PD-1 cells. How it is done: All reagents and serially diluted VH were prepared in FMAT assay buffer. […] Plates were incubated for 2 hours at room temperature then fluorescence measured in the FL2 (502 nm-537 nm) and FL5 (677-800 nm) channels on the Mirrorball plate reader (TTP) following excitation at 488 nm and 640 nm. Data was expressed as a % of the total binding control (i.e. % control) after subtraction of the background signal determined from the non-specific binding control wells.

Test [10] concerns the target T2, human PD-1 on primary human CD4+ T cells. Briefly: flow cytometry, PHA-stimulated human CD4+ T cells, donor 2. How it is done:
as §3

The target in test [11] is T1, human PD-1 expressed on cells (CHO …). The test can be described thus: FMAT 1.57 epitope competition on CHO human PD-1 cells; competitor 1.57-Strep; sample kept 1 day in human serum.
Test [12] addresses T2, human PD-1 on primary human CD4+ T cells. Briefly: flow cytometry, PHA-stimulated human CD4+ T cells, donor 1. How it is done: as §3
The target of test [13] is T1, human PD-1 expressed on cells (CHO …). The test can be described thus: FMAT 1.57 epitope competition on CHO human PD-1 cells; competitor 1.57-Strep; sample kept 7 days in human serum.
Test [14] has as its target T3, recombinant human PD-1 Fc chimera (human, UniProt Q15116 25-167).
T3 construct: Bought protein; also called human PD-1-huFc; huPD-1-Fc; not shown: human Fc
The test can be described thus: SPR Biacore T200, PD-1-huFc amine-coupled, single cycle kinetics. Background: In SPR one partner is held on a chip, and binding of the other changes the refractive index at the surface.

Test [15] deals with T2, human PD-1 on primary human CD4+ T cells. The test can be described thus: flow cytometry, PHA-stimulated human CD4+ T cells, donor 3. On the procedure: as §3

T2 sequence (Q15116 21-288): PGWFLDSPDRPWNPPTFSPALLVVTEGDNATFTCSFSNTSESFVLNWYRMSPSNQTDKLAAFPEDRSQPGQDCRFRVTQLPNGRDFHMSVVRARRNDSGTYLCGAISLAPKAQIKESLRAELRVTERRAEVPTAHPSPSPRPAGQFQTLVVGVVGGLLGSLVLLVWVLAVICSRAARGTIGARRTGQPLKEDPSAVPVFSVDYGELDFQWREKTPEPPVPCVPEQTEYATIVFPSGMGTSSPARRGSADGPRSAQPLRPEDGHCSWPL
T1 sequence (Q15116 21-288): as above
T3 sequence (Q15116 25-167 limits assumed, change not shown): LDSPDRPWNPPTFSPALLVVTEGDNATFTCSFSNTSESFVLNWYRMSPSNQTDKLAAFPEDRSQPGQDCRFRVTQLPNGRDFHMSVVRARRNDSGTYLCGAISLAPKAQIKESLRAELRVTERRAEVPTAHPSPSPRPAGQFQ

B1: Humabody® 1.92 (VHH)
VHH: EVQLVESGGGLVKPGGSLRLSCAASGFTFSDESMTWMRQAPGKGLEWVSYISSGGGVKFYADSVKGRFTISRDNAKNSLYLQMNSLRAEDTAVYYCAREAPLRLGESPHDAFDISGQGTMVTVSS
notes: human VH single domain antibody
As for B1, the IC50 in test [1] worked out at 4.4 nM; in [2], 0.79 nM; in test [4], 5.7 nM; in [7], 6.1 nM; in test [8], 4.4 nM; in [9], 4 nM. The IC50 in [11] amounted to 4.9 nM; in test [13], 5.4 nM. The “Reporter Assay EC50” value in test [3] was found to be 13 nM. The half-maximal effective concentration (EC50) in test [5] worked out at 0.9 nM; in [6], 0.1 nM; in [10], 1.1 nM; in test [12], 0.8 nM; in test [15], 1.2 nM. Moreover, the Kd in test [14] was found to be 0.059 nM. Also, the koff in test [14] is 3.67e-05 s⁻¹. Moreover, in test [14], the kon stood at 620000 M⁻¹ s⁻¹.

A word on the IC50: it is the concentration that inhibits the measured activity by half. Lower therefore signals greater potency. The term EC50 denotes the concentration that produces a half-maximal response. Low values mean an effect from little substance, high ones a need for much substance. As usually defined, the Kd is a measure of binding affinity in units of concentration. As a reminder, the koff is the first-order rate constant of dissociation. By kon is commonly meant the rate constant with which the complex forms.
